Measured values published in patent JP2020103280A.

Key:
[1] = molecular target: ヒトFcγRIIIaを固定化した担体(分離剤)を詰めたカラム(FcR9_Fカラム、WO2018/150973号の実施例5に記載) (human); assay: FcγRIIIa affinity chromatography (FcR9_F column), area share of the strongly binding peak 3; antibody from bioreactor batch culture in EX-CELL Advanced CHO Fed-batch Medium without Mn, day 10
[2] = molecular target: ヒトFcγRIIIaを固定化した担体(分離剤)を詰めたカラム(FcR9_Fカラム、WO2018/150973号の実施例5に記載) (human); assay: FcγRIIIa affinity chromatography (FcR9_F column), area share of the strongly binding peak 3; antibody from bioreactor batch culture in BalanCD CHO Growth A with 5 µM Mn, day 10
[3] = molecular target: ヒトFcγRIIIaを固定化した担体(分離剤)を詰めたカラム(FcR9_Fカラム、WO2018/150973号の実施例5に記載) (human); assay: FcγRIIIa affinity chromatography (FcR9_F column), area share of the strongly binding peak 3; antibody from bioreactor batch culture in EX-CELL Advanced CHO Fed-batch Medium with 1 µM Mn, day 10
[4] = molecular target: ヒトFcγRIIIaを固定化した担体(分離剤)を詰めたカラム(FcR9_Fカラム、WO2018/150973号の実施例5に記載) (human); assay: FcγRIIIa affinity chromatography (FcR9_F column), area share of the strongly binding peak 3; antibody from bioreactor batch culture in BalanCD CHO Growth A without Mn, day 9
[5] = molecular target: ヒトFcγRIIIaを固定化した担体(分離剤)を詰めたカラム(FcR9_Fカラム、WO2018/150973号の実施例5に記載) (human); assay: FcγRIIIa affinity chromatography (FcR9_F column), area share of the strongly binding peak 3; antibody from bioreactor batch culture in EX-CELL Advanced CHO Fed-batch Medium with 10 µM Mn, day 10
[6] = molecular target: ヒトFcγRIIIaを固定化した担体(分離剤)を詰めたカラム(FcR9_Fカラム、WO2018/150973号の実施例5に記載) (human); assay: FcγRIIIa affinity chromatography (FcR9_F column), area share of the strongly binding peak 3; antibody from bioreactor batch culture in EX-CELL Advanced CHO Fed-batch Medium with 5 µM Mn, day 10

FcR9_Fカラムとの結合力が強いピーク(ピーク3)の割合 [1]: 35.9% | FcR9_Fカラムとの結合力が強いピーク(ピーク3)の割合 [2]: 34.7% | FcR9_Fカラムとの結合力が強いピーク(ピーク3)の割合 [3]: 36.5% | FcR9_Fカラムとの結合力が強いピーク(ピーク3)の割合 [4]: 27.9% | FcR9_Fカラムとの結合力が強いピーク(ピーク3)の割合 [5]: 41% | FcR9_Fカラムとの結合力が強いピーク(ピーク3)の割合 [6]: 38.4%
B1: 抗インターロイキン6レセプター(IL−6R)抗体 (antibody, V domains shown)
VH: QVQLQESGPGLVRPSQTLSLTCTVSGYSITSDHAWSWVRQPPGRGLEWIGYISYSGITTYNPSLKSRVTMLRDTSKNQFSLRLSSVTAADTAVYYCARSLARTTAMDYWGQGSLVTVSS
VL: DIQMTQSPSSLSASVGDRVTITCRASQDISSYLNWYQQKPGKAPKLLIYYTSRLHSGVPSRFSGSGSGTDFTFTISSLQPEDIATYYCQQGNTLPYTFGQGTKVEIK
